For series [1], the target named is T1, rat calmodulin (CaM), calcium-activated (rat, UniProt P0DP29 1-149).
T1 construct: calmodulin, rat; modelled from the N-lobe (residues 6-77) and C-lobe (residues 83-147) of PDB 1CLL; Expressed from the pET 28b vector; The patch clamp experiments used purified CaM from bovine testes bought from Sigma, not this recombinant protein; also called Ca^2+-CaM; source: E. coli Rosetta 2(DE3), purified (phenyl sepharose, AKTA purifier)
In words: cryo-EM structure; detergent solubilized TRPV5 (DMNG) incubated 1 h with 10 mM CaCl2 and rat CaM at 1:20 (TRPV5 tetramer:CaM), then SEC; map at 4.4 Å without applied symmetry. The settings on record: both partners purified.

Series [2] concerns the molecule itself. In words: cryo-EM structure; lipid-bound TRPV5 in detergent (DMNG) with 200 µM diC8 PI(4,5)P2; C4 symmetry, 3.9 Å.

B1: full-length rabbit TRPV5 (transient receptor potential vanilloid 5) (natural protein, UniProt Q9XSM3 1-730, looked up)
chain: MGACPPKAKGPWAQLQKLLISWPVGEQDWEQYRDRVNMLQQERIRDSPLLQAAKENDLRLLKILLLNQSCDFQQRGAVGETALHVAALYDNLEAATLLMEAAPELAKEPALCEPFVGQTALHIAVMNQNLNLVRALLARGASVSARATGAAFRRSPHNLIYYGEHPLSFAACVGSEEIVRLLIEHGADIRAQDSLGNTVLHILILQPNKTFACQMYNLLLSYDEHSDHLQSLELVPNHQGLTPFKLAGVEGNTVMFQHLMQKRKHVQWTCGPLTSTLYDLTEIDSWGEELSFLELVVSSKKREARQILEQTPVKELVSFKWKKYGRPYFCVLASLYILYMICFTTCCIYRPLKLRDDNRTDPRDITILQQKLLQEAYVTHQDNIRLVGELVTVTGAVIILLLEIPDIFRVGASRYFGQTILGGPFHVIIITYASLVLLTMVMRLTNMNGEVVPLSFALVLGWCSVMYFARGFQMLGPFTIMIQKMIFGDLMRFCWLMAVVILGFASAFHITFQTEDPNNLGEFSDYPTALFSTFELFLTIIDGPANYSVDLPFMYCITYAAFAIIATLLMLNLFIAMMGDTHWRVAQERDELWRAQVVATTVMLERKMPRFLWPRSGICGYEYGLGDRWFLRVENHHDQNPLRVLRYVEAFKCSDKEDGQEQLSEKRPSTVESGMLSRASVAFQTPSLSRTTSQSSNSHRGWEILRRNTLGHLNLGLDLGEGDGEEVYHF
notes: TRPV5, rabbit, full length; tetrameric channel; Eluted from the beads with 1D4 peptide; no removal of the tag is described; source: Saccharomyces cerevisiae, detergent solubilized, purified (1D4 antibody Sepharose beads, SEC on Superose 6)
What is called stoichiometry N is the number of molecules, sites or subunits per partner or assembly. Take B1: the binding result in series [1] is given as “binds”. Further, in series [2], the “stoichiometry N” value was 4 subunits.

The record behind these values is article PMC6179994, “Structural insights on TRPV5 gating by endogenous modulators” (Nature Communications, 2018).
